The chains are these.
B1: Histone-lysine N-methyltransferase SETD2, residues 2382 to 2430; numbered along this chain, Q9BYW2 (parent)
chain: SPPKPKTIVLPPNWKTARDPEGKIYYYHVITRQTQWDPPTWESPGDDAS

± gives the uncertainty stated by the source.

Variants of B1 are the subject of the data set. The data set can be described thus: abundance fitness (aPCA) (normalised: wild type 0, dead -1); higher = more abundant; growth selection in yeast, the domain comes from the species named. The note with it: Homo sapiens.
Take SPPKPKTIVLPPNWKTARDPEGKIYYYHVITRQTQWKPPTWESPGDDAS [D37K]: the abundance fitness is -0.061 ± 0.11.

Consider SPPKPKTIVLPPNWKTARDPEGKIYYYHVITRQTQWRPPTWESPGDDAS [D37R], for which the abundance fitness was -0.252 ± 0.049.

SPPKPKTIVLPPNWKTARDPEGKIYYYHVITRQTQWQPPTWESPGDDAS [D37Q]: the abundance fitness was -0.235 ± 0.072.

Consider SPPKPKTIVLPPNWKTARDPEGKIYYYHVITRQTQWTPPTWESPGDDAS [D37T], for which the abundance fitness was determined as 0.117 ± 0.062.

Regarding SPPKPKTIVLPPNWKTARDPEGKIYYYHVITRQTQWIPPTWESPGDDAS [D37I], the abundance fitness came out at 0.005 ± 0.094.

On to SPPKPKTIVLPPNWKTARDPEGKIYYYHVITRQTQWPPPTWESPGDDAS [D37P], for which the abundance fitness was -0.48 ± 0.11.

For SPPKPKTIVLPPNWKTARDPEGKIYYYHVITRQTQWNPPTWESPGDDAS [D37N], the abundance fitness is -0.298 ± 0.18.

In the case of SPPKPKTIVLPPNWKTARDPEGKIYYYHVITRQTQWYPPTWESPGDDAS [D37Y], the abundance fitness is -0.314 ± 0.1.

For the variant SPPKPKTIVLPPNWKTARDPEGKIYYYHVITRQTQWEPPTWESPGDDAS [D37E], the abundance fitness came to 0.049 ± 0.063.

Take SPPKPKTIVLPPNWKTARDPEGKIYYYHVITRQTQWCPPTWESPGDDAS [D37C]: the abundance fitness was -0.07 ± 0.071.

Regarding SPPKPKTIVLPPNWKTARDPEGKIYYYHVITRQTQWLPPTWESPGDDAS [D37L], the abundance fitness was -0.159 ± 0.036.

As for SPPKPKTIVLPPNWKTARDPEGKIYYYHVITRQTDWDPPTWESPGDDAS [Q35D], the abundance fitness was -0.869 ± 0.24.

SPPKPKTIVLPPNWKTARDPEGKIYYYHVITRQTHWDPPTWESPGDDAS [Q35H]: the abundance fitness is -0.083 ± 0.099.

SPPKPKTIVLPPNWKTARDPEGKIYYYHVITRQTAWDPPTWESPGDDAS [Q35A]: the abundance fitness was -0.155 ± 0.053.

In the case of SPPKPKTIVLPPNWKTARDPEGKIYYYHVITRQTWWDPPTWESPGDDAS [Q35W], the abundance fitness is -0.722 ± 0.12.

For the variant SPPKPKTIVLPPNWKTARDPEGKIYYYHVITRQTFWDPPTWESPGDDAS [Q35F], the abundance fitness is -0.683 ± 0.13.

As for SPPKPKTIVLPPNWKTARDPEGKIYYYHVITRQTIWDPPTWESPGDDAS [Q35I], the abundance fitness was -0.505 ± 0.14.

For the variant SPPKPKTIVLPPNWKTARDPEGKIYYYHVITRQTPWDPPTWESPGDDAS [Q35P], the abundance fitness was -0.535 ± 0.17.

Turning to SPPKPKTIVLPPNWKTARDPEGKIYYYHVITRQTMWDPPTWESPGDDAS [Q35M], the abundance fitness is -0.074 ± 0.069.

Turning to SPPKPKTIVLPPNWKTARDPEGKIYYYHVITRQTGWDPPTWESPGDDAS [Q35G], the abundance fitness is -0.735 ± 0.047.

As for SPPKPKTIVLPPNWKTARDPEGKIYYYHVITRQTTWDPPTWESPGDDAS [Q35T], the abundance fitness is -0.052 ± 0.046.

For the variant SPPKPKTIVLPPNWKTARDPEGKIYYYHVITRQTNWDPPTWESPGDDAS [Q35N], the abundance fitness is -0.875 ± 0.39.

As to SPPKPKTIVLPPNWKTARDPEGKIYYYHVITRQTYWDPPTWESPGDDAS [Q35Y], the abundance fitness is -0.489 ± 0.038.

As for SPPKPKTIVLPPNWKTARDPEGKIYYYHVITRQTLWDPPTWESPGDDAS [Q35L], the abundance fitness is -0.364 ± 0.065.

With SPPKPKTIVLPPNWKTARDPEGKIYYYHVITRQTEWDPPTWESPGDDAS [Q35E], the abundance fitness is -0.547 ± 0.09.

Consider SPPKPKTIVLPPNWKTARDPEGKIYYYHVITRQTKWDPPTWESPGDDAS [Q35K], for which the abundance fitness is -0.351 ± 0.1.

Take SPPKPKTIVLPPNWKTARDPEGKIYYYHVITRQTVWDPPTWESPGDDAS [Q35V]: the abundance fitness is -0.212 ± 0.036.

As for SPPKPKTIVLPPNWKTARDPEGKIYYYHVITRQTSWDPPTWESPGDDAS [Q35S], the abundance fitness is -0.062 ± 0.032.

Consider SPPKPKTIVLPPNWKTARDPEGKIYYYHVITRQTCWDPPTWESPGDDAS [Q35C], for which the abundance fitness was -0.337 ± 0.085.

SPPKPKTIVLPPNWKTARDPEGKIYYYHVITRQTQWDKPTWESPGDDAS [P38K]: the abundance fitness was -0.121 ± 0.044.

For the variant SPPKPKTIVLPPNWKTARDPEGKIYYYHVITRQTQWDGPTWESPGDDAS [P38G], the abundance fitness is -0.693 ± 0.051.

With SPPKPKTIVLPPNWKTARDPEGKIYYYHVITRQTQWDWPTWESPGDDAS [P38W], the abundance fitness was -0.184 ± 0.059.

Regarding SPPKPKTIVLPPNWKTARDPEGKIYYYHVITRQTQWDVPTWESPGDDAS [P38V], the abundance fitness was -0.108 ± 0.034.

With SPPKPKTIVLPPNWKTARDPEGKIYYYHVITRQTQWDEPTWESPGDDAS [P38E], the abundance fitness is -0.493 ± 0.12.

In the case of SPPKPKTIVLPPNWKTARDPEGKIYYYHVITRQTQWDFPTWESPGDDAS [P38F], the abundance fitness was -0.143 ± 0.094.

In the case of SPPKPKTIVLPPNWKTARDPEGKIYYYHVITRQTQWDRPTWESPGDDAS [P38R], the abundance fitness was -0.251 ± 0.034.

In the case of SPPKPKTIVLPPNWKTARDPEGKIYYYHVITRQTQWDAPTWESPGDDAS [P38A], the abundance fitness is -0.126 ± 0.036.

Turning to SPPKPKTIVLPPNWKTARDPEGKIYYYHVITRQTQWDNPTWESPGDDAS [P38N], the abundance fitness was -0.651 ± 0.33.

Consider SPPKPKTIVLPPNWKTARDPEGKIYYYHVITRQTQWDCPTWESPGDDAS [P38C], for which the abundance fitness was -0.221 ± 0.11.

As to SPPKPKTIVLPPNWKTARDPEGKIYYYHVITRQTQWDQPTWESPGDDAS [P38Q], the abundance fitness is -0.255 ± 0.069.

Take SPPKPKTIVLPPNWKTARDPEGKIYYYHVITRQTQWDMPTWESPGDDAS [P38M]: the abundance fitness was -0.043 ± 0.077.

With SPPKPKTIVLPPNWKTARDPEGKIYYYHVITRQTQWDHPTWESPGDDAS [P38H], the abundance fitness was -0.039 ± 0.14.

As for SPPKPKTIVLPPNWKTARDPEGKIYYYHVITRQTQWDYPTWESPGDDAS [P38Y], the abundance fitness was -0.228 ± 0.11.

SPPKPKTIVLPPNWKTARDPEGKIYYYHVITRQTQWDTPTWESPGDDAS [P38T]: the abundance fitness is -0.398 ± 0.15.

Take SPPKPKTIVLPPNWKTARDPEGKIYYYHVITRQTQWDDPTWESPGDDAS [P38D]: the abundance fitness was -0.836 ± 0.15.

With SPPKPKTIVLPPNWKTARDPEGKIYYYHVITRQTQWDIPTWESPGDDAS [P38I], the abundance fitness was -0.111 ± 0.04.

Consider SPPKPKTIVLPPNWKTARDPEGKIYYYHVITRQTQWDLPTWESPGDDAS [P38L], for which the abundance fitness is -0.396 ± 0.052.

Consider SPPKPKTIVLPPNWKTARDPEGKIYYYHVITRQTQWDPPAWESPGDDAS [T40A], for which the abundance fitness is 0.15 ± 0.039.

As for SPPKPKTIVLPPNWKTARDPEGKIYYYHVITRQTQWDPPCWESPGDDAS [T40C], the abundance fitness came out at 0.151 ± 0.061.

With SPPKPKTIVLPPNWKTARDPEGKIYYYHVITRQTQWDPPGWESPGDDAS [T40G], the abundance fitness worked out at 0.064 ± 0.054.

For the variant SPPKPKTIVLPPNWKTARDPEGKIYYYHVITRQTQWDPPDWESPGDDAS [T40D], the abundance fitness is -0.342 ± 0.14.

Turning to SPPKPKTIVLPPNWKTARDPEGKIYYYHVITRQTQWDPPEWESPGDDAS [T40E], the abundance fitness is 0.12 ± 0.043.

With SPPKPKTIVLPPNWKTARDPEGKIYYYHVITRQTQWDPPFWESPGDDAS [T40F], the abundance fitness is -0.251 ± 0.1.

Source of the values: the Human Domainome abundance scans (Beltran et al. 2025).
